B1: Cell adhesion molecule-related/down-regulated by oncogenes (Rattus norvegicus (Rat)), O35158 (parent)
chain: MHPDLGPLWKLLYVLVILCSSVSSDLATYFISEPLSAVQKLGRPVVLHCSAKPVTARISWLHNGKRLDRNTEQIKIHRGTLTILSLNPSLSGCYQCVANNSVGAVVSGPATVSADALADFDSSTMHVITAEKKNTGFIGCRVPESNPKAEVRYKIRGKWLMYSTGNYIILPSGNLQILNVSSKDKGSYKCAAYNPVTSELKVEPAGRKLLVSRPSSDGFHILHPALSQALAVLPHSPVTLECVVSGVPASQVYWLKDGQDCLSGSNWRRLYSHLATASIDPADSGNYSCVVGNNSSGDVKHVTYTVNVLEHASISKGLHDQKVSLGATVRFTCEVHGNPAPNRTWFHNAQPIRPSSRHLTEGSVLKITGVIMEDSGLYQCMADNGIGFMQSTGRLQIEQDSGQRPVIVTAPANVEVTDGDFVTLSCNATGEPVPVIHWYGRHGLITSHPSQVLRSKSRKSHLFRPGDLDPEPVYLIMSQAGSSSLSIQAVTREHAGKYTCEAVNKHGSTQSEAFLTVVPFETNTKAEPVTPSEASQNDERDPRDGSESGLLNLFPVKVHSGGVELPAEKNASVPDAPNILSPPQTHMPDTYTLVWRTGRDGGMPINAYFVKYRKLDDGSGAVGSWHTVRVPGSESELHLTELEPSSLYEVLMVARSAVGEGQPAMLTFRTSKEKMASSKNTQASFPPVGIPKRPVTSEASNSNFGVVLTDSSRHSGVPEAPDRPTISMASETSVYVTWIPRANGGSPITAFKVEYKRMKSSDWLVAAEDIPPSKLSVEVRSLEPGSIYKFRVIVINHYGESFRSSASRPYQVAGFPNRFSNRPITGPHIAYTEAVSDTQIMLKWTYIPSSNNNTPIQGFYIYYRPTDSDNDSDYKRDVVEGSKQWHTIGHLQPETSYDIKMQCFNEGGESEFSNVMICETKVKRVPGASEYPMKELSTPPSSSGNGGNVGPATSPARSSDMLYLIVGCVLGVMVLILLVFIALCLWKSRQQSAIQKYDPPGYLYQGSEINGQMVEYTTLSGTARINGSVHGGFLSKGSLSNGCSHLHHKGPNGVNGILNGTINGGLYSAHTSSLTRTCVEFEHPHHLVNGGAVYTAVPQMDPLECINCRNCRNNNRCFTKTNSPLPVVPVVASYPQDGLEMKPLGVMKFPVCPVSTVPDGGQIPEECLKDSVAPAPTQRTCRQDNTSDINSDSTEDTAEFNRGDSSGHSEAEDKVFSWSPLILSPVLEDCSEKTAWSPPGPPLDGLSVVLQQAQET
partner: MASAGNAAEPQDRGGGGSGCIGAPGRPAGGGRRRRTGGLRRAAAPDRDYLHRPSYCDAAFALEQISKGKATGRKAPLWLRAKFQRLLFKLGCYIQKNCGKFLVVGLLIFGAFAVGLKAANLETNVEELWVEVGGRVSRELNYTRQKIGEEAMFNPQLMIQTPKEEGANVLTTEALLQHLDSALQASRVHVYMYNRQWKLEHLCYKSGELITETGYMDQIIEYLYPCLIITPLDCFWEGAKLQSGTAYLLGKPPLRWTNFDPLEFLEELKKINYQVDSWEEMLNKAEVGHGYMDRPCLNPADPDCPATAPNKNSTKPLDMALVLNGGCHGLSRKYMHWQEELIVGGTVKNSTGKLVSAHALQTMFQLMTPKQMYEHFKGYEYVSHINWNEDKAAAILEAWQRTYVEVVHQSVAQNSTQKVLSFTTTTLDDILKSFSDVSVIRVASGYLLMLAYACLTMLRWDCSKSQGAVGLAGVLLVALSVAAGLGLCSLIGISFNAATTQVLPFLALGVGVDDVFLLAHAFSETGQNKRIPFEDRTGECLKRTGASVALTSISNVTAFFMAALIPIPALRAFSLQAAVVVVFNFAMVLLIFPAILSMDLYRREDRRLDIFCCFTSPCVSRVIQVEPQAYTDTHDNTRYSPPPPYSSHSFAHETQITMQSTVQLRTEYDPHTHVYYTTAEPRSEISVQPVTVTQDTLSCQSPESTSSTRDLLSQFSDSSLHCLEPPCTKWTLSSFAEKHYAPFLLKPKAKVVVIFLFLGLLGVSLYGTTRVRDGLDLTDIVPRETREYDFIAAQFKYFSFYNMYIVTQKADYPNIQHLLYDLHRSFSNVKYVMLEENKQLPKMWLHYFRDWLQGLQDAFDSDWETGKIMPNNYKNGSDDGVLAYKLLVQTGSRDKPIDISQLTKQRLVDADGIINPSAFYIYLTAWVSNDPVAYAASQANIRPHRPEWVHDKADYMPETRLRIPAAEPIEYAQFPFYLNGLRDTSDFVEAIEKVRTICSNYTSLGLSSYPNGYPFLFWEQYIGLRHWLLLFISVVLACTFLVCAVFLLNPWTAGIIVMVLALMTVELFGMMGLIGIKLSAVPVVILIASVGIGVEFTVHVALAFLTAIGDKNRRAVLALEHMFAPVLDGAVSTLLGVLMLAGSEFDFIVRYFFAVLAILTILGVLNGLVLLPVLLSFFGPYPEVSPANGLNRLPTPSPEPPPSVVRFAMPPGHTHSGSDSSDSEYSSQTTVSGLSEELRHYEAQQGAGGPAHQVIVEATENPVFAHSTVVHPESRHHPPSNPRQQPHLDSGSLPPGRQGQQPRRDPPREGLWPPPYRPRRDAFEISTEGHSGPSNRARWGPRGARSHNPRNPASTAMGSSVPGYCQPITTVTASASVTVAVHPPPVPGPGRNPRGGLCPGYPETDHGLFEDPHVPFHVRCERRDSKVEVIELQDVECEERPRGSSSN
B2: Cell adhesion molecule-related/down-regulated by oncogenes (Rattus norvegicus (Rat)), O35158 (parent)
chain: B1 chain
partner: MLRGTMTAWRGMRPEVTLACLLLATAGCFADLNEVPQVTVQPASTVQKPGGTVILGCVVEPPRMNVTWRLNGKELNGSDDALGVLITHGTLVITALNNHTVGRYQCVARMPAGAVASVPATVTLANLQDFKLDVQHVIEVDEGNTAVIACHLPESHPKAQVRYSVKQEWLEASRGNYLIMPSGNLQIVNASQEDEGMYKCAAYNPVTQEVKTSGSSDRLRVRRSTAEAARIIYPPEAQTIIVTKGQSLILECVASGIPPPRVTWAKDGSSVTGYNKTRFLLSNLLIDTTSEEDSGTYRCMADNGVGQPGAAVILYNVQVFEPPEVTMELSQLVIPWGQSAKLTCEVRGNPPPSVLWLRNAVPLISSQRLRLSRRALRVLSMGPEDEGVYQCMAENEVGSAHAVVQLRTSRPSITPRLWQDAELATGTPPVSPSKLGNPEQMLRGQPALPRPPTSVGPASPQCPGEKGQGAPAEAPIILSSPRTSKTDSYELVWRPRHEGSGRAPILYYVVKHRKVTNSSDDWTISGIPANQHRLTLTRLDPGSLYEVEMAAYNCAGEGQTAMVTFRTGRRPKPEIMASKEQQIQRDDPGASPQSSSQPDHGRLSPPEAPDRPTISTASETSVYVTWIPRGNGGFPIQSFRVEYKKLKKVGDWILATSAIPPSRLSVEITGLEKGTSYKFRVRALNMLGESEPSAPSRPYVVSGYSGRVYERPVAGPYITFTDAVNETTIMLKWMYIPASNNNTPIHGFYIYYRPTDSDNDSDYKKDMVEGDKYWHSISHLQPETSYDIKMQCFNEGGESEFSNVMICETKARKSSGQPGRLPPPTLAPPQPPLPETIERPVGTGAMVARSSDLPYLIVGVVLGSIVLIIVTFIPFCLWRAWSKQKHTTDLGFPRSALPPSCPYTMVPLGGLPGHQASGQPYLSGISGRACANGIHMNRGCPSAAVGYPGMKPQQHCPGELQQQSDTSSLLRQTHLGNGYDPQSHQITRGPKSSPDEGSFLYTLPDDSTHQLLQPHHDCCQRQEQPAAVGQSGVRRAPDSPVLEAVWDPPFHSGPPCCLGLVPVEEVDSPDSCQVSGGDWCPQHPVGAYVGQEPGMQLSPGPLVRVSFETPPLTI
B3: Cell adhesion molecule-related/down-regulated by oncogenes (Rattus norvegicus (Rat)), O35158 (parent)
chain: B1 chain
partner: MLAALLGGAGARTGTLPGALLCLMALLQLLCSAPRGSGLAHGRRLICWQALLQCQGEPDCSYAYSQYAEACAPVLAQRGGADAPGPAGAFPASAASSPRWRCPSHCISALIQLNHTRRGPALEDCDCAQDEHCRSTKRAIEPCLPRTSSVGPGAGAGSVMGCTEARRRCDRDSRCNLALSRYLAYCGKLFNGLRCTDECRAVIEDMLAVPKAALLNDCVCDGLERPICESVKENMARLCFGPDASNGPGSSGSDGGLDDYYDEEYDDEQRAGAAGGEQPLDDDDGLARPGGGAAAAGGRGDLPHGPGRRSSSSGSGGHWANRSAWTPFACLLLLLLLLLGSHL

Variants of: B1
Conditions: with ptc1_human PTCH1, Q13635

| Variant | effect of a mutation on the interaction |
| --- | --- |
| S937R | decreasing interaction strength |
| P686A | decreasing interaction strength |
| V688M | decreasing interaction strength |
| V777E | decreasing interaction strength |
| T681S | with no effect |
| I787A | decreasing interaction strength |

Variants of: B2
Conditions: with boc_human BOC

| Variant | effect of a mutation on the interaction |
| --- | --- |
| I787A | with no effect |
| T681S | with no effect |
| S937R | with no effect |
| P686A | decreasing interaction strength |
| V777E | with no effect |
| V688M | with no effect |

Variants of: B3
Conditions: with gas1_mouse Gas1, Q01721

| Variant | effect of a mutation on the interaction |
| --- | --- |
| P686A | decreasing interaction strength |
| I787A | decreasing interaction strength |
| T681S | with no effect |
| V777E | with no effect |
| V688M | with no effect |
| S937R | decreasing interaction strength |

— IntAct's records for PubMed 21802063
